We go through one molecule from publication PMC3167627.

This series addresses Mcm2WT-7 (Mcm2-7) (Saccharomyces cerevisiae, UniProt P29469;P24279;P30665;P29496;P53091;P38132 1-868;1-971;1-933;1-775;1-1017;1-845). Kind of series: EMSA. For orientation: In EMSA bound probe runs differently from free probe, usually more slowly.

B1: poly-dT60 (ssDNA)
DNA: TTTTTTTTTTTTTTTTTTTTTTTTTTTTTTTTTTTTTTTTTTTTTTTTTTTTTTTTTTTT
For the molecule B1, the binding result is “binds”.
